System: Bacillus subtilis DB104 (SP-AmyQ fusion secretion)
Assay: AmyQ secretion efficiency, weighted average sort bin (1 = best secretion, 10 = worst) (bin number (weighted average, 1-10)); higher = lower secretion efficiency
Procedure, shortened: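 Designed signal peptides were fused to mature AmyQ and expressed from the amyE locus in B. subtilis DB104, and this library was loaded at about 0.3 cells per ~65 nL alginate bead together with fluorescein-starch. After about 13 h of growth at room temperature and nile red staining, occupied beads were split into 10 equally populated bins by green/red fluorescence ratio using large-particle flow cytometry. Amplicons from every bin were Illumina-sequenced. The secretion score is the average bin number weighted by read frequency and normalised to beads per bin, excluding low-abundance sequences.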

| Sequence | AmyQ secretion efficiency |
| --- | --- |
| MKKWLIIAVSLAIAIVLFMYTKGETKAAGM | 3.24 |
| MKKRLIAPMLLSAASLAFFATFMSGSAQAAAY | 3.39 |
| MHLIRARRRVCLAVVLIAGCRFNEDQHQAEGENT | 6.03 |
| MKKAFLVFLSVVLVTTVFLTSSFLVKQQESVAQAKQL | 4.08 |
| MKKAAAVLLSLGLVFGFSYGAGHVYEAKTK | 5.94 |
| MKLKSKLLLSCLALSTVFVATTIANLPTH | 6.34 |
| MTMLRKIIGWILLLCIIKKKAFTVIASGKEV | 7.58 |
| MKKRITLLALLAVVAFAFTDSSKAKAAEA | 3.06 |
| MRMLWRSLALCGLALTLAICIAQAAEP | 4.76 |
| MKKCLLFLTTIALILSLSTNAFAANE | 1.03 |
| MKRTWNRQRKVCLTALLSVLLVAGSVPFHAEAKKP | 2.09 |
| MKRTTNLTMLCLWFTVFSLFLVLLPGKALGAVD | 4.04 |
| MKKRFFGPIILAFILFAGTASAIAIPS | 5.82 |
| MTKRYGQTKTYKGTTTTAVLAAVFYLTDEDQAAAV | 6.8 |
| MKNMSCKLVVSVTLFFSFLTIGPLAHDQNS | 6.5 |
| MFKKHTISLLIIFLLASAVLAKPAEAHTV | 2.44 |
| MKRRKRRYLLLGILCSAAVFLIGAPSRALGAEV | 1.61 |
| MKKLRKKKIIGLLTVSIASPSFAAEK | 7.35 |
| MRKKLKWLSFLLGFIILLFLFTLTILKYQFSNNDS | 7.28 |
| MKRLLVSLRVWMVFLMNWVTPDRKTPAAAVY | 7.55 |
| MNFKKTVVSALSISALALEPSGVASAHEI | 2.95 |
| MKLWMRKTLRRKKRKVTFGLVSPPAALMADKP | 7.28 |
| MKTKTLFIFSAILTLSIFAPNEAFAQTA | 1.47 |
| MKKAAAVLLSLGLVFGFSYGAGHVAESKTK | 4.52 |
| MLKKIALILCIAIVFFLLFFSAPASAHVS | 3.76 |
| MLKKKWMVGLLAGCLAAGGFSYNAFITEN | 6.43 |

| Sequence | AmyQ secretion efficiency |
| --- | --- |
| MRSYIKVLTMCFLGLILFVPTLLADNS | 4.36 |
| MKKLVLCVSILAVILSGVLLTQLS | 5.53 |
| MKNMSCKLVVSVTLFFSFLTIGPLAHWQNS | 5.85 |
| MRKTIFAFLTGLMMFGTITAPSASPD | 5.98 |
| MPYLKRVLLLLVTGLFMSLFAVTATLSAQTG | 1.38 |
| MLCVMMLLFMAIASFPVSAQAKDQ | 5.48 |
| MPYLKRVLLLLVTGLFMSLFAVTATWSAQTG | 6.1 |
| MKRIRIPMTLALGAALTIAPLSFDSAEEN | 7.3 |
| MNKPTKLFSTLALAAGMTKRRAGGAGTIHAQQP | 5.85 |
| MKVLLSALLLLLFAFEPSASKKKL | 6.2 |
| MKRLLVSLRVWMVFLMNWVTPDRKTAAPAVY | 6.03 |
| MKTLRTLCVLMILSGVIFFGLKYDAKDI | 5.31 |
| MGLGKKLSVAVAASFMSLSISLPGVQMAEG | 3.92 |
| MKWMCSICCAAVLLAGGAVQAEAV | 2.89 |
| MLTKRLLTIYIMLLGLITWFPGAAQAEEK | 2.44 |
| MKKAAAVLLSLGLVFGFSYGAGHVVPTAAEAKTK | 4.57 |
| MMIGQCVICLSLLVFGTTAAHAEET | 4.07 |
| MFKKLLLATSALTFSLSLVLKLRGHAKAQEV | 6.07 |
| MLKRTSFVSSGKYTTAVLLSILLPSGQAHAQSA | 2.65 |
| MKKTGQQLLSLGLVFGFSYGAGHVAEAKTK | 3.07 |
| MNKLKRLSMLTVMIASVFIFSSHCLAAQY | 2.86 |
| MLKKKWMVGLLAGCLAAGGFSYNTFATEN | 5.24 |
| MKLAKRVSALTPSTTLAITAKADEE | 6.16 |
| MLKGIIRFLLVSFVLFFALSTGITGVQAAPA | 2.22 |
| MPIKKKVMMCLAVTLVFGSMSSGGFKE | 5.66 |
| MKKAAAVLLSLGGFSYGAGHVAEAKTK | 6.38 |

| Sequence | AmyQ secretion efficiency |
| --- | --- |
| MKKTGIRFLLVSFVLFFALSTGITGVQAAPA | 1.8 |
| MKVLLSALLLLLFAFAASASGKKL | 6.06 |
| MKKVLMAFIICLSLILSVLAAPPSGAKCESV | 3.94 |
| MKKAFLVFLSVVVKQQESVAQAKQL | 7.51 |
| MFNRLFRVCFLAALIMAFFLGNSVYAQKP | 2.37 |
| MTKKAWFLPLVCVLLISGWLAPAASASRQTT | 1.94 |
| MKTLRTLCVLMILSGVIFFGLKIDRKDI | 5.46 |
| MKRLLSTLLIGIMLLTFAPSAFAAQQ | 1.25 |
| MKLRKVLTGSVLSLGLLKRRRKKAFATSP | 5.35 |
| MGLGKKLSVAVAASFMSLSISLFVVQAAEG | 3.73 |
| MKKWIYVVLVLSIAGIGGFSVHKASS | 4.97 |
| MRFTKVVGFLSVLGLAAVFPLTAQGEKA | 2.12 |
| MKQGKFSVFLILLLMLTLVVAPKEKAEAAEE | 2.62 |
| MKKRKRRNFKRFIAAFLVLALMISLVPADVLAEED | 3.75 |
| MRGKSAVLLSLIMLIAGFLISFVFQM | 6.98 |
| MTMLRKIIGWILLLCIIPLFAFTVIASLKEV | 3.47 |
| MKKRKRRNFKRFIAAFLVLALMISLVPADMLAKST | 1.76 |
| MKRLLSTLLIGIMLLTFAPSAFAAED | 2.37 |
| MFQFAITLSVLCALILLVPTLLVIPFQHNKEAGASV | 6.31 |
| MKVLLSALLLLLFAFEPSNSGKKL | 6.02 |
| MTMLRKIIGWILLLCIIPLFAFTVITSGKEV | 6.41 |
| MRGKSAVLLSLIMLIAGFLIISFSFQM | 8.29 |
| MRFTKVVGFLSVLGLAAVFPLTVQAEKA | 3.18 |
| MKKKLAAGLTASAIVGTTLVVTPIEAATI | 2.11 |
| MAIIIAIIAAVIVIAALITFNVRNCSPG | 5.87 |
| MKKRLIGFLVLVPALIMSGITLIEANDD | 4.89 |

| Sequence | AmyQ secretion efficiency |
| --- | --- |
| MRHKIITFILAVVVIIIIGNMIGGGGGQEATSK | 6.41 |
| MSGTCSIVCLWILVLLLSCLSGKSAYAATS | 3.6 |
| MKKWLRRAVSLAIAIVLFMYTKGEAKAAGM | 2.72 |
| MKLKKRVSMFLVALLMCLLLFVSTPAKAVKT | 4.33 |
| MLKKTILAAFILVGSTLGAFSFSSDASAKHV | 2.16 |
| MMKKGLLAGALTATVLFGTCAVDVPGIISPKTAEAAKR | 4.03 |
| MKKTIMSFVAVAALSTTAFGAHCSAKEI | 2.42 |
| MKWMCSICCAAVLLAGGAHQAEAV | 2.89 |
| MTMLRKIIGWILLLCIIPLFAFTVIDSGKEV | 6.22 |
| MFNRLFRVCFLAALIMAFSSSSLFISLVTLPNSVYAQKP | 4.04 |
| MKKRLIAPMLLSAASLAFFAMFIIGSTAQAAAY | 4.67 |
| MKKIWIGMLAAAVLLLMVPKVVLADAA | 3.66 |
| MKWMCSICCAAVLLAGGAAQYEAV | 7.08 |
| MKKMLMLAFTFLLALTIHVGEASAVRK | 2.01 |
| MRGTSVVGFLSVLGLAAVFPLTAQAEKA | 2.91 |
| MMKKQVMLALTAAAGLGLTALHSAPAAKAAPL | 2.65 |
| MKKKQVMLALTAAAGLGLTALHSAPAAKAAPD | 2.15 |
| MTTWIVLFLVLIAAAISIFVYVSTGSEK | 8.09 |
| MKKGIIRFLLVSFVLFFALFAFIAFGGGTTVQAAPA | 1.86 |
| MNLRKILLSSALSLGMLFSFAFVSAAPVLATSS | 2.03 |
| MKIVLLSALLLLLFAFEPSASGKKL | 4.93 |
| MLTKRLLTIYIMLLMLIAWFPGAAQAEEK | 1.61 |
| MKLRKVLTGSVLSLGLLPPSSPAFATSP | 1.49 |
| MLKKIALTLCPAIVGSLLFFTAPASVHVS | 6.13 |
| MKKRLIGFLVLVPALIMSGITLIERNKK | 6.81 |
| MKRKQYSGRKLSIIVAYPIQTNASPM | 6.49 |

| Sequence | AmyQ secretion efficiency |
| --- | --- |
| MAIIIAIIAAVIVIAALITFTSNVRNASPG | 7.45 |
| MKKGIIRFLLVSFVLFFALKKRITGVQAAPA | 6.43 |
| MKVPKTMLLSTAAGLLLSLTATSWSAHYV | 6.27 |
| MLKRTSFVSSLRRKRKKLLSILLPSGQAHAQSA | 6.99 |
| MKKQIITATTAVVLGSTLFAGAASSQSI | 1.97 |
| MLCVMMLLFSAIASFPVSAQIKDQ | 5.57 |
| MKSLPYTIALLFCGLIIVSMAAKGDED | 8.1 |
| MKKLLAAGIIGLLTVSIASPGFVFSFAAEK | 8.62 |
| MKKIITATTAVVLGSTLFAGAASAQSI | 2.35 |
| MKKQIITATTAVVLGSTLFAGAASAEEE | 2.04 |
| MKKQIITATTAVVLGSTLFAGAASAQSD | 2.54 |
| MKNMSCKLVVSVTLFFSFLTIGPLAHGQNS | 2 |
| MKSKGSIMACLILFSFTITTFINTETISRFSN | 8.63 |
| MKTKTLFIFSAILTLSIQAPNETFAQTA | 2.35 |
| MKKWLIIAVSLAIAIVLFMYTKGEAKTAGM | 4.28 |
| MKRKLLSSLAISALSLGLLVSAPTASFADDE | 5.75 |
| MFKKHSTISLLIIFLLASAVLAKPIEAHTV | 1.86 |
| MKKWLIIAVSLAIAIVLFMYTKGEAKVAGM | 5.3 |
| MITAAAVLLSLGLVFGFSYGAGHVAEAKTK | 3.09 |
| MKKLLAAGIIGLLTVSIASPSFHAEK | 6.26 |
| MKKRLIAPMLLSAASLAFFAMSGSAQNAAY | 8.43 |
| MKSKGSIMACLILFSFTITTFINTETGSISAFSN | 5.66 |
| MSKRLIAPMLLSAASLAFFAMSGSAQAAAY | 3.13 |
| MRGKSAVLLSLIMLIAGFLISFMFQM | 7.73 |

Reference: the supplement of paper PMC9942255
